Earlier results on 2 molecules are cited in US9914774B2, “Notch pathway inhibition” (Genentech, Inc., priority 2014, dated 2018).

For series [1] the following is noted: Phase 1a, patients with solid tumors.
For series [2] the following is noted: first-in-human phase I, advanced solid tumors.

Read-outs that look alike come from different tables or passages of the source.

For the molecule “59R5: anti-Notch antibody 59R5, described in U.S. Pat. No. 7,919,092”, in series [1], the patients experienced diarrhea is 58% and the “patients experiencing grade 3 or higher diarrhea” value is recorded as 14%.

B1: 52M51: anti-Notch1 antibody 52M51, described in U.S. Pat. No. 8,435,513 (antibody, chains of the INN, looked up, V domains shown)
VH: QVQLVQSGAEVKKPGASVKISCKVSGYTLRGYWIEWVRQAPGKGLEWIGQILPGTGRTNYNEKFKGRVTMTADTSTDTAYMELSSLRSEDTAVYYCARFDGNYGYYAMDYWGQGTTVTVSS
VL: QAVVTQEPSLTVSPGGTVTLTCRSSTGAVTTSNYANWFQQKPGQAPRTLIGGTNNRAPGVPARFSGSLLGGKAALTLSGAQPEDEAEYYCALWYSNHWVFGGGTKLTVL
In the case of B1, the patients experienced diarrhea in series [2] is 64%.
